B1: PAN2-PAN3 deadenylation complex subunit pan3 (Neurospora crassa (strain ATCC 24698 / 74-OR23-1A / CBS 708.71 / DSM 1257 / FGSC 987)), Q7SDP4 (parent)
chain: MAATRYNSGDLRRQVGSPRAKNRDTKETLCRNVVIYGHCRWEDSGCTFNHDQNKASVSQTDLNSNRRVFNVESPSFTPANQQQSAGKKSTFSSQAASAAPFTPRGVGTSTPTLQQANDSTIFNPAAIREFTPQNYDVGNTISQNGAQHVTQDGGLYSDPFSISSLGQTMPPQGQYNPYANDPNNLAGAGAGLYQPAGFGNGLVHPPNYHLYQPPSELYRPSLQPYQRTTYDFFIPKDRRENLQKKLFHMQQLLPNSGLPNLDRWHSLFPLDTKATRNSTCFGYPSWMYKAQNNKNGRHFALRRIEGYRLTNEKAILNVTKEWKKIINANIVTVHEAFTTEFFGDSSLIFVYDFHPLSETLYDHHFPPNNSHNRLRNTNKIPENLLWSYVCQIANALLAIHNAKLAARCLELSKIIWENNRIRLAACSILDVLHHDSPNRKTIEELQQEDFVKFGRIILALATNTPTLNFNNIDAALATIVPRYSTQLRGVLEWLIKPSAPGETKTVETLLGGITTHLANFANFVMQESDEKEFHLMRELENGRIARLMFKLSVVNERGDSCGVHNWSETGERLLLKLFRDYVFHQVDADGKARLDTNHYLNCLSKLDASSEEQILLTSRDNATVFVVSYRSIRQMLDRAYGELGKESKPSATGATI
partner: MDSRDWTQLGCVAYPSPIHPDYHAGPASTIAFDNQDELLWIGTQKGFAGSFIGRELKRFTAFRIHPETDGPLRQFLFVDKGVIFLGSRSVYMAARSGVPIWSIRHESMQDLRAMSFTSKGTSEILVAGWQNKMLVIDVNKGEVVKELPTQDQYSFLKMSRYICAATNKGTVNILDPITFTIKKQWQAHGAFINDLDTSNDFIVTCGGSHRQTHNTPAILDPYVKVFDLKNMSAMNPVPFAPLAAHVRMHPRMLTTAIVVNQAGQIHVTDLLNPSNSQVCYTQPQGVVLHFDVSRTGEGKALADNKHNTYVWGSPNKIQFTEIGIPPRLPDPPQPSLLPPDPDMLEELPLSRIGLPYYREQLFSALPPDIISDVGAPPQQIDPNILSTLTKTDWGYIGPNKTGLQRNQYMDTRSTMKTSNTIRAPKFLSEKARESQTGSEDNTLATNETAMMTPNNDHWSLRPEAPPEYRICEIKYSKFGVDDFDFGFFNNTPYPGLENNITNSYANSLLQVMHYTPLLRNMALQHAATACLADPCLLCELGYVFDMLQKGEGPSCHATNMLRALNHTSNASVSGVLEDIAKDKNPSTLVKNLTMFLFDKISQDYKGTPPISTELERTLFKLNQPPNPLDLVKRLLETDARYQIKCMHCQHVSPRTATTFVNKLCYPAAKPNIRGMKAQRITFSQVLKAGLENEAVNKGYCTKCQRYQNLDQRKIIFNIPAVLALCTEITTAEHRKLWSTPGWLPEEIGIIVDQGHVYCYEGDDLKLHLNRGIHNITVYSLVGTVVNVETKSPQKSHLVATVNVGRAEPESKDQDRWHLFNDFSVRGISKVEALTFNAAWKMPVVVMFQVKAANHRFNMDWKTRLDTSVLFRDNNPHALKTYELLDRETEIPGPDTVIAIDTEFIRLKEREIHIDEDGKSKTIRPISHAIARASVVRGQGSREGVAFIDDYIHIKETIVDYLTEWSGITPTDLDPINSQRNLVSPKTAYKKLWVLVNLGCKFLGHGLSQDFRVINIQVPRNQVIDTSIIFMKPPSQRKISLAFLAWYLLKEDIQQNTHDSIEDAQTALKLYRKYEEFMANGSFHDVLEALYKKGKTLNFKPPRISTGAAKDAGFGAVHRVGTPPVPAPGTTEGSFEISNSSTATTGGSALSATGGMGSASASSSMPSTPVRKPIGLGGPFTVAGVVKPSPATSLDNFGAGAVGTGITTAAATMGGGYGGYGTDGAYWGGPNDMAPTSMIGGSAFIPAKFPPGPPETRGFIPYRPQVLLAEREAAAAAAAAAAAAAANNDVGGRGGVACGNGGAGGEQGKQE
B2: PAN2-PAN3 deadenylation complex catalytic subunit pan2 (Neurospora crassa (strain ATCC 24698 / 74-OR23-1A / CBS 708.71 / DSM 1257 / FGSC 987)), P0C581 (parent)
chain: B1 partner
partner: B1 chain
B3: PAN2-PAN3 deadenylation complex subunit PAN3 (Drosophila melanogaster (Fruit fly)), Q95RR8 (parent)
chain: MCSTYGLLSFEFSDTAAMDPIFFSPTNGIPSESKLATYMNRQNVATPSGYGLNNGFSLLNLDSPLNKKSQVTPQSPEFIPTRLGSTPNFYAPYHNAPMQLSNGLNGVNGLTAAAAAAAAAAAAAAAAVPSSTSSASSASVTISKTANGGASMLALQKTASIASVTIAQQQPQHPQKQQQHPPSVGGGAVSAASAPIAISGAPPNPAAAPFVSSMSAQTPLKGRGAMMRQESPTAAMISGAGPGEKSPPHGMTPHGASPIPSALPTSVHQENVGGTIYFYPTANAQNSQPVVNSMVVDGTHPALHGVSAVAPMSAGVPAAMMYTGHVYPGPSSNVVTMQPKTLLESAFFMPDEMRAEVLARNEISNLIMDAAEAAQHALPLEVENYHALYPLEPPAQPLHAKLTFPATTYRATHNTTGYKYCLRRIHGFRLQSTKCMTLVEMWKKLQHTNVVQLREVFTTKAFGDNSLVLVYDYHPGSQTLLAKYFTPAPETNGYTDPFQGEARPFSHKSNMQRTSNGPLLPEATIWSIIMQLTAGLKAIHHAGLACKVLDPTKIIVTGKRVRFSSCCISDITQFDPNASNPLALVNMHQQDDLTALGRLVLALACRCLQSVQRDNVQSSIDMVTRNYSTDLRNFIVYLFTTNNRRSVTDLMPMIGARFYTQLDALQSKIDMQEDELAKEMENGRLYRILVKLNSINERPDFNLDCTWSETGDRYMLKLFRDYLFHSVTEDGRPWLDHAHIVQCLNKLDAGSIERVQLMSRDEQSVLIVSYAELKNCLENAFSELMSSAAN

Variants of: B1
Conditions: with pan2_neucr par-1, P0C581

Row | Variant | effect of a mutation on the interaction
1 | V627E | disrupting interaction strength

Variants of: B2
Conditions: with pan3_neucr par-2, Q7SDP4

Row | Variant | effect of a mutation on the interaction
2 | T60R | disrupting interaction strength
3 | F62E | disrupting interaction strength
4 | G97E | disrupting interaction strength
5 | P99R | disrupting interaction strength

Variants of: B3
Conditions: with pan2_drome PAN2, A1Z7K9
Chain of pan2_drome PAN2, A1Z7K9 (A1Z7K9 whole entry): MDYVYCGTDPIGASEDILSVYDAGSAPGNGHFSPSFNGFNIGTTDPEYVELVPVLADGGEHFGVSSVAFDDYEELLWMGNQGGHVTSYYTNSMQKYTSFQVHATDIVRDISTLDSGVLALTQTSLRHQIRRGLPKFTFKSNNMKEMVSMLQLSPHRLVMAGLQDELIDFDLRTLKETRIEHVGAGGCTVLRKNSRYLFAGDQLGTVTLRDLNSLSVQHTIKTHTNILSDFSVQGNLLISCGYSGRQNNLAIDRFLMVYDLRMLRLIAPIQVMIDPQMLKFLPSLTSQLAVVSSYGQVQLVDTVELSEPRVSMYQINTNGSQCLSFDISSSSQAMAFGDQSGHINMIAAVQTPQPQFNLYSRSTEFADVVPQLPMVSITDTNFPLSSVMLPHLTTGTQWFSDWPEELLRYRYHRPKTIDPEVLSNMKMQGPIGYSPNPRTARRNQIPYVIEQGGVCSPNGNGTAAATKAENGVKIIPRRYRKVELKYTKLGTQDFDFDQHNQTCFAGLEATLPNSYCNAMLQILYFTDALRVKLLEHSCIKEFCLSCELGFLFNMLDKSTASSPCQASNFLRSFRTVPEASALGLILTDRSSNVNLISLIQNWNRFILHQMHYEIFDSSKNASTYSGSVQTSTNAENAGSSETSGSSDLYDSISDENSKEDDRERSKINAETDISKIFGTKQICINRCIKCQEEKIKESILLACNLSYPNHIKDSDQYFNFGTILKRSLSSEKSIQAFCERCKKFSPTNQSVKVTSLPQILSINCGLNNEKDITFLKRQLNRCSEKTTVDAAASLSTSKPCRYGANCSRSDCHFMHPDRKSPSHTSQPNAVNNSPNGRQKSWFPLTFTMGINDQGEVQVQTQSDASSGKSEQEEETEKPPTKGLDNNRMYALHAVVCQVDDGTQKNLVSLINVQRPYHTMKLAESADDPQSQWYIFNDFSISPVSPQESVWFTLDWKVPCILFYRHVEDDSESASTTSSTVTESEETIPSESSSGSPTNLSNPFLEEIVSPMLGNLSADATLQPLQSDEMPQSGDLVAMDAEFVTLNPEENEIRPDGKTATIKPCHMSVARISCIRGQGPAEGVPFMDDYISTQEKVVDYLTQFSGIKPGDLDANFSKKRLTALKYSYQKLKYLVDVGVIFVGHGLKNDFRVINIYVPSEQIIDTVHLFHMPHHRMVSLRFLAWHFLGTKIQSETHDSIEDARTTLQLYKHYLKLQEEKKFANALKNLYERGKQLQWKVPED

Row | Variant | effect of a mutation on the interaction
6 | W707A;G711E;Y722A;H739A;R754A | decreasing interaction strength
7 | Y722A;H739A;R754A | decreasing interaction strength
